From paper PMC6631230, “Efficient Screening of Combinatorial Peptide Libraries by Spatially Ordered Beads Immobilized on Conventional Glass Slides” (High-Throughput, 2019)

Target: mouse IgG
Experiment: not given
Conditions: literature IgG-binding peptide listed in Table 3; read-out: KD (equilibrium dissociation constant), literature value; cited from earlier work
Source text: Table 3 Equilibrium dissociation constants (KD) for peptide mouse IgG interaction determined by SPR. | column: KD, µM

| Molecule | Kd |
| --- | --- |
| HFRRHL | 26 µM |
| HWRGWV | 10 µM |

Target: polyclonal mouse IgG (mouse)
Experiment: SPR; antibody immobilised by amine coupling on an HC200 chip (Reichert SR7500DC); peptides flowed in HBS-EP (pH 7.4, 0.01 M HEPES, 0.15 M NaCl, 3 mM EDTA, 0.005% Tween 20); multiple kinetics mode
Conditions: not given

| Kd | Molecule |
| --- | --- |
| 50 µM | GIHPFGR [IgG BP 2] |
| 20 µM | GEPFSIP [IgG BP 3] |
| 60 µM | SHSGIFR [IgG BP 4] |
| 14 µM | GRIHGPR [IgG BP 1] |
